In US20080292639A1 one finds EC50 of antibody induced phagocytosis of amyloid data, which are given here for two substances.

This assay addresses native amyloid plaques in unfixed brain sections of Tg2576 APP transgenic mice (human) (UniProt P05067). The experiment in a line: cell-based or functional assay.

native amyloid plaques in unfixed brain sections of Tg2576 APP transgenic mice (human), sequence (P05067 672-713 limits assumed): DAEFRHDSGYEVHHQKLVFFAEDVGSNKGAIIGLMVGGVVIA

As for mAb 6E10 (antibody), the EC50 of antibody induced phagocytosis of amyloid came to 5 µg/mL.
“mAb 4G8 (commercially available anti-Aβ antibody)” displayed an EC50 of antibody induced phagocytosis of amyloid of 0.8 µg/mL.
